# Source: paper doi:10.1101/2020.09.29.318733
# How the values were obtained:
# Kohinoor = experiment: SEC
# Padron = experiment: SEC
stoichiometry N (Kohinoor),stoichiometry N (Padron),Substance
2,–,Kohinoor
–,4,Padron
